Reference: article PMC10110466 (Nature biotechnology, 2022)

Target: T1, soluble human IL-2Rβγ complex (human, UniProt P31785 23-262; P14784 27-240, biotin)
T1 sequence (looked up) 1: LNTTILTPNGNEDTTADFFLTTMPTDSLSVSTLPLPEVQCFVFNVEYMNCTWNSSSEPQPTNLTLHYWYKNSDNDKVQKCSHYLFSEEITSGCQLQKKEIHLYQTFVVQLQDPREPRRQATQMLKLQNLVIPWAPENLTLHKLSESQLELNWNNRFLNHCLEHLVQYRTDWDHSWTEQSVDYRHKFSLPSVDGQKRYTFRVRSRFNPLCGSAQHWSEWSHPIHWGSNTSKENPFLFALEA
T1 sequence (looked up) 2: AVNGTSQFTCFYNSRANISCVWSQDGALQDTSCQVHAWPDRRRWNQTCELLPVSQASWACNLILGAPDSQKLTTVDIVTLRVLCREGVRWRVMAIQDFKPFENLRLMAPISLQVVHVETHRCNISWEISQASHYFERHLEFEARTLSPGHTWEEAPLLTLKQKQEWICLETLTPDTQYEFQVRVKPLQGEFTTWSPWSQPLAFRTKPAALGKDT
Test: cell-based or functional assay

## PKKKIQLHAEHALYDALMILNIVKTNS [Neo2A]
  STAT5 phosphorylation in YT-1 human NK cells, EC50: > 40 µM
